Laboratory results: PMC4397538 (2015)

Target: T1, Biotin-BH4-Bcl-XL (Homo sapiens (Human), UniProt Q07817, biotin on the N-terminus (also used without the biotin tag))
T1 chain: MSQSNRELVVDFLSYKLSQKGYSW
Assay: SPR

- binding result: no binding
B1: GST-tagged IP3R1 domain 3 (mouse IP3R1, a.a. 923-1581) (protein)
chain: SIHGVGELMTQVVLRGGGFLPMTPMAAAPEGNVKQAEPEKEDIMVMDTKLKIIEILQFILNVRLDYRISCLLCIFKREFDESNSQSSETSSGNSSQEGPSNVPGALDFEHIEEQAEGIFGGSEENTPLDLDDHGGRTFLRVLLHLTMHDYPPLVSGALQLLFRHFSQRQEVLQAFKQVQLLVTSQDVDNYKQIKQDLDQLRSIVEKSELWVYKGQGPDEPMDGASGENEHKKTEEGTSKPLKHESTSSYNYRVVKEILIRLSKLCVQESASVRKSRKQQQRLLRNMGAHAVVLELLQIPYEKAEDTKMQEIMRLAHEFLQNFCAGNQQNQALLHKHINLFLNPGILEAVTMQHIFMNNFQLCSEINERVVQHFVHCIETHGRNVQYIKFLQTIVKAEGKFIKKCQDMVMAELVNSGEDVLVFYNDRASFQTLIQMMRSERDRMDENSPLMYHIHLVELLAVCTEGKNVYTEIKCNSLLPLDDIVRVVTHEDCIPEVKIAYINFLNHCYVDTEVEMKEIYTSNHMWKLFENFLVDICRACNNTSDRKHADSILEKYVTEIVMSIVTTFFSSPFSDQSTTLQTRQPVFVQLLQGVFRVYHCNWLMPSQKASVESCIRVLSDVAKSRAIAIPVDLDSQVNNLFLKSHNIVQKTALNWRLSAR
